By Km is commonly meant the substrate concentration at which the rate is half of its maximum. In general, kcat refers to the maximal rate divided by the concentration of active sites.

Substrate in data set [1]: C[C@H](N)c1ccccc1
Nature of the data set: purified protein. It counts as biochemical, synthetic construct. Particulars: co-substrate sodium pyruvate; 5 mM PLP; (S)-PEA 0.1-15 mM.

Substrate in data set [2]: C[C@H](N)c1ccccc1
Nature of the data set: purified protein. It counts as biochemical, Ruegeria pomeroyi. Particulars: co-substrate sodium pyruvate; 5 mM PLP; (S)-PEA 0.1-15 mM.

B1: N50 (synthetic construct) (protein)
chain: MSMSTITNHMPTAELQALDAAHHMHPFSTNNELAEEGVRVITRAKGVWLTDSEGEEILDAMAGLWCVNIGYGRDELAEVAARQMRELPYYNTFFKTTHVPAIALAQKLAELAPGDLNHVFFAGGGSEANDTNIRMVRTYWAEKGKPEKNVIISRKNAYHGSTVGSASLGGMAGMHAQGGIPIPDIHHINQPNWWAEGRPGDTGMTPEEFGLARARELEEAILELGEDRVAAFIAEPVQGAGGVIVAPDTYWPEIQRICDKYEILLIADEVICGFGRTGNWFGSQTMGIRPHIMTIAKGLSSGYAPIGGSIVCDEVAEVIIGGKCEFNHGYTYSGHPVAAAVALENLRILEEENIIDHVRNVAAPYLKEKWEALTDHPLVGEAKIVGMMGSIALTPDKATRAKFASEPGTIGYICRERCFANNLVMRHVGDRMIISPPLVITPEEIDEMFVRIRKSLDEAHAEILRQGLMKAAG
notes: pET22b(+), E. coli BL21(DE3), Ni-NTA purified
With B1, in “purified protein [1]”, the Michaelis-Menten constant (Km) stood at 6.22 ± 1.01 mM and the kcat was 0.39 ± 0.03 s⁻¹.

B2: Sp-ATA (Ruegeria pomeroyi DSS-3) (protein)
chain: MATITNHMPTAELQALDAAHHLHPFSANNALGEEGTRVITRARGVWLNDSEGEEILDAMAGLWCVNIGYGRDELAEVAARQMRELPYYNTFFKTTHVPAIALAQKLAELAPGDLNHVFFAGGGSEANDTNIRMVRTYWQNKGQPEKTVIISRKNAYHGSTVASSALGGMAGMHAQSGLIPDVHHINQPNWWAEGGDMDPEEFGLARARELEEAILELGENRVAAFIAEPVQGAGGVIVAPDSYWPEIQRICDKYDILLIADEVICGFGRTGNWFGTQTMGIRPHIMTIAKGLSSGYAPIGGSIVCDEVAHVIGKDEFNHGYTYSGHPVAAAVALENLRILEEENILDHVRNVAAPYLKEKWEALTDHPLVGEAKIVGMMASIALTPNKASRAKFASEPGTIGYICRERCFANNLIMRHVGDRMIISPPLVITPAEIDEMFVRIRKSLDEAQAEIEKQGLMKSAA
notes: wild type, pET22b(+), E. coli BL21(DE3), Ni-NTA purified (His-tag), homodimer
On to B2, for which, in the data set “purified protein [2]”, the Michaelis constant (Km) amounted to 3.64 ± 0.31 mM and the kcat amounted to 6.33 ± 0.19 s⁻¹.

B3: N49 (synthetic construct) (protein)
chain: MSMSTITNHMPTAELQALDAAHHMHPFTTNNELAEKGARVITRAKGVWLTDSEGEEILDAMAGLWCVNIGYGRDELAEVAARQMRELPYYNTFFQTTHVPAIALAAKLAELAPGDLNHVFFAGGGSEANDTNIRMVRTYWAEKGKPEKNIIISRKNAYHGSTVGSASLGGMAGMHAQGGLPIPDIHHIDQPNWWAEGRPGDTGMTPEEFGLARARELEQAILELGEDRVAAFIAEPVQGAGGVIVAPDTYWPEIQRICDKYEILLIADEVICGFGRTGNWFGSQTMGIRPHIMTIAKGLSSGYAPIGGSIVCDEVAEVIIGGKCEFNHGYTYSGHPVAAAVALENLRILEEENIIDHVRNVAAPYLKEKWEALTDHPLVGEAKIVGMMGSIALTPDKATRAAFASEPGTVGYICRERCFANNLVMRHVGDRMIISPPLVITPEEIDTLIERARKSLDEAHAELKRQGLMKAAG
notes: as for B1
Take B3: in “purified protein [1]”, the Km was found to be 2.02 ± 0.19 mM and the kcat came out at 1.10 ± 0.03 s⁻¹.

Source of the values: paper PMC12247033, “Exploring the Stability and Substrate Profile of Transaminase from Silicibacter pomeroyi with Ancestral Sequence Reconstruction” (Chembiochem, 2025).
